± gives the uncertainty stated by the source.
B1: Ankyrin repeat and SAM domain-containing protein 6, residues 774 to 836; numbered along this chain, Q68DC2 (parent)
chain: DEDELTGILKKLSLEKYQPIFEEQEVDMEAFLTLTDGDLKELGIKTDGSRQQILAAISELNAG

Variants of: B1
Experiment: abundance fitness (aPCA) (normalised: wild type 0, dead -1); higher = more abundant; growth selection in yeast, the domain comes from the species named
Settings: Homo sapiens
Variant DEDELTGILKKLSLEKYQPIFEEQEVDMEAFLTLTDGDLKELGIKTDGSRQQILAAISELNGG [A62G] has an abundance fitness of 0.011 ± 0.041. DEDELTGILKKLSLEKYQPIFEEQEVDMEAFLTLTDGDLKELGIKTDGSRQQILAAISELNEG [A62E] showed an abundance fitness of 0.035 ± 0.051. DEDELTGILKKLSLEKYQPIFEEQEVDMEAFLTLTDGDLKELGIKTDGSRQQILAAISELNIG [A62I] showed an abundance fitness of -0.325 ± 0.064. For DEDELTGILKKLSLEKYQPIFEEQEVDMEAFLTLTDGDLKELGIKTDGSRQQILAAISELNHG [A62H], the abundance fitness was -0.074 ± 0.1. DEDELTGILKKLSLEKYQPIFEEQEVDMEAFLTLTDGDLKELGIKTDGSRQQILAAISELNDG [A62D] showed an abundance fitness of 0.031 ± 0.071. For DEDELTGILKKLSLEKYQPIFEEQEVDMEAFLTLTDGDLKELGIKTDGSRQQILAAISELNFG [A62F], the abundance fitness was -0.345 ± 0.1. With DEDELTGILKKLSLEKYQPIFEEQEVDMEAFLTLTDGDLKELGIKTDGSRQQILAAISELNCG [A62C] the abundance fitness was -0.017 ± 0.14. With DEDELTGILKKLSLEKYQPIFEEQEVDMEAFLTLTDGDLKELGIKTDGSRQQILAAIHELNAG [S58H] the abundance fitness was -0.114 ± 0.17. Work on DEDELTGILKKLSLEKYQPIFEEQEVDMEAFLTLTDGDLKELGIKTDGSRQQILAAIKELNAG [S58K] yielded an abundance fitness of 0.157 ± 0.066. For DEDELTGILKKLSLEKYQPIFEEQEVDMEAFLTLTDGDLKELGIKTDGSRQQILAAIAELNAG [S58A], the abundance fitness was 0.045 ± 0.066. For DEDELTGILKKLSLEKYQPIFEEQEVDMEAFLTLTDGDLKELGIKTDGSRQQILAAIRELNAG [S58R], the abundance fitness was 0.022 ± 0.04. Work on DEDELTGILKKLSLEKYQPIFEEQEVDMEAFLTLTDGDLKELGIKTDGSRQQILAAIQELNAG [S58Q] yielded an abundance fitness of -0.198 ± 0.092. DEDELTGILKKLSLEKYQPIFEEQEVDMEAFLTLTDGDLKELGIKTDGSRQQILAAIGELNAG [S58G] showed an abundance fitness of 0.034 ± 0.04. Work on DEDELTGILKKLSLEKYQPIFEEQEVDMEAFLTLTDGDLKELGIKTDGSRQQILAAITELNAG [S58T] yielded an abundance fitness of -0.064 ± 0.049. For DEDELTGILKKLSLEKYQPIFEEQEVDMEAFLTLTDGDLKELGIKTDGSRQQILAAIMELNAG [S58M], the abundance fitness was -0.205 ± 0.093. For DEDELTGILKKLSLEKYQPIFEEQEVDMEAFLTLTDGDLKELGIKTDGSRQQILAAINELNAG [S58N], the abundance fitness was 0.118 ± 0.09. DEDELTGILKKLSLEKYQPIFEEQEVDMEAFLTLTDGDLKELGIKTDGSRQQILAAIIELNAG [S58I] showed an abundance fitness of -0.533 ± 0.088. DEDELTGILKKLSLEKYQPIFEEQEVDMEAFLTLTDGDLKELGIKTDGSRQQILAAIFELNAG [S58F] gave an abundance fitness of -0.434 ± 0.068. For DEDELTGILKKLSLEKYQPIFEEQEVDMEAFLTLTDGDLKELGIKTDGSRQQILAAIYELNAG [S58Y], the abundance fitness was -0.466 ± 0.1. Work on DEDELTGILKKLSLEKYQPIFEEQEVDMEAFLTLTDGDLKELGIKTDGSRQQILAAISELHAG [N61H] yielded an abundance fitness of -0.007 ± 0.084. DEDELTGILKKLSLEKYQPIFEEQEVDMEAFLTLTDGDLKELGIKTDGSRQQILAAISELWAG [N61W] gave an abundance fitness of -0.531 ± 0.055. In the case of DEDELTGILKKLSLEKYQPIFEEQEVDMEAFLTLTDGDLKELGIKTDGSRQQILAAISELAAG [N61A], the abundance fitness is reported as -0.148 ± 0.051. DEDELTGILKKLSLEKYQPIFEEQEVDMEAFLTLTDGDLKELGIKTDGSRQQILAAISELDAG [N61D] showed an abundance fitness of -0.297 ± 0.067. DEDELTGILKKLSLEKYQPIFEEQEVDMEAFLTLTDGDLKELGIKTDGSRQQILAAISELMAG [N61M] gave an abundance fitness of -0.333 ± 0.057. For DEDELTGILKKLSLEKYQPIFEEQEVDMEAFLTLTDGDLKELGIKTDGSRQQILAAISELPAG [N61P], the abundance fitness was -0.461 ± 0.057. Work on DEDELTGILKKLSLEKYQPIFEEQEVDMEAFLTLTDGDLKELGIKTDGSRQQILAAISELTAG [N61T] yielded an abundance fitness of -0.001 ± 0.043. DEDELTGILKKLSLEKYQPIFEEQEVDMEAFLTLTDGDLKELGIKTDGSRQQILAAISELYAG [N61Y] gave an abundance fitness of -0.345 ± 0.062. With DEDELTGILKKLSLEKYQPIFEEQEVDMEAFLTLTDGDLKELGIKTDGSRQQILAAISELQAG [N61Q] the abundance fitness was -0.127 ± 0.05. Work on DEDELTGILKKLSLEKYQPIFEEQEVDMEAFLTLTDGDLKELGIKTDGSRQQILAAISELSAG [N61S] yielded an abundance fitness of -0.173 ± 0.042. For DEDELTGILKKLSLEKYQPIFEEQEVDMEAFLTLTDGDLKELGIKTDGSRQQILAAISELGAG [N61G], the abundance fitness was -0.186 ± 0.036. DEDELTGILKKLSLEKYQPIFEEQEVDMEAFLTLTDGDLKELGIKTDGSRQQILAAISELKAG [N61K] gave an abundance fitness of 0.071 ± 0.064. DEDELTGILKKLSLEKYQPIFEEQEVDMEAFLTLTDGDLKELGIKTDGSRQQILAAISELRAG [N61R] gave an abundance fitness of 0.007 ± 0.043. For DEDELTGILKKLSLEKYQPIFEEQEVDMEAFLTLTDGDLKELGIKTDGSRQQILAAISELCAG [N61C], the abundance fitness was -0.314 ± 0.064. With DEDELTGILKKLSLEKYQPIFEEQEVDMEAFLTLTDGDLKELGIKTDGSRQQILAAISELLAG [N61L] the abundance fitness was -0.299 ± 0.042. In the case of DEDELTGILKKLSLEKYQPIFEEQEVDMEAFLTLTDGDLKELGIKTDGSRQQILAAISELIAG [N61I], the abundance fitness is reported as -0.449 ± 0.074. DEDELTGILKKLSLEKYQPIFEEQEVDMEAFLTLTDGDLKELGIKTDGSRQQILAAISEVNAG [L60V] gave an abundance fitness of -0.03 ± 0.042. For DEDELTGILKKLSLEKYQPIFEEQEVDMEAFLTLTDGDLKELGIKTDGSRQQILAAISESNAG [L60S], the abundance fitness was -0.466 ± 0.045. Variant DEDELTGILKKLSLEKYQPIFEEQEVDMEAFLTLTDGDLKELGIKTDGSRQQILAAISEPNAG [L60P] has an abundance fitness of -0.636 ± 0.082. With DEDELTGILKKLSLEKYQPIFEEQEVDMEAFLTLTDGDLKELGIKTDGSRQQILAAISECNAG [L60C] the abundance fitness was 0.033 ± 0.046. For DEDELTGILKKLSLEKYQPIFEEQEVDMEAFLTLTDGDLKELGIKTDGSRQQILAAISEKNAG [L60K], the abundance fitness was -0.508 ± 0.2. Variant DEDELTGILKKLSLEKYQPIFEEQEVDMEAFLTLTDGDLKELGIKTDGSRQQILAAISEYNAG [L60Y] has an abundance fitness of 0.048 ± 0.069. DEDELTGILKKLSLEKYQPIFEEQEVDMEAFLTLTDGDLKELGIKTDGSRQQILAAISEWNAG [L60W] showed an abundance fitness of 0.031 ± 0.055.
